Measured values as given in US20260042806A1 (OXFORD NANOPORE TECHNOLOGIES, published 2026).
Residue numbers refer to the chain shown, from its start. Numbers in names are those of the source. No end group written: not given here. *: point of attachment. 4‑(fluorosulfonyl)phenylacetyl = O=C(Cc1ccc(S(=O)(=O)F)cc1)*; Benzoyl(3-SO2F) = O=C(c1cccc(S(=O)(=O)F)c1)*; Benzoyl(4-SO2F) = O=C(c1ccc(S(=O)(=O)F)cc1)*

Assays:
[1] = biological target: T1, CsgG (preformed nonameric CsgG pore complexes of Example 2) (Escherichia coli, UniProt P0AEA2 16-277); experiment: SDS-PAGE time course of the reaction with CsgG
T1 construct: Tyr196 fits that numbering; also called CsgG nonameric channel
T1 sequence: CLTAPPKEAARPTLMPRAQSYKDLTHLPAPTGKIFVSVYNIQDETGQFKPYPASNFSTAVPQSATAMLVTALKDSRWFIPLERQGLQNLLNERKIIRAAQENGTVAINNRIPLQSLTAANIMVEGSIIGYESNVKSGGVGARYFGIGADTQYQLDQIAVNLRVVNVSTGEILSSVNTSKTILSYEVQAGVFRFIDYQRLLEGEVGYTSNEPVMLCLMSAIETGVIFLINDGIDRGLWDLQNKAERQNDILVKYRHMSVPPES

[2] = biological target: T1, CsgG (preformed nonameric CsgG pore …); experiment: insertion of complexes into bilayers; told of the covalent SuTide complexes as a group
[3] = biological target: T2, CsgG-F56Q pore (ONLP20134) (Escherichia coli, UniProt P0AEA2 16-277); experiment: single-channel current traces, MinION flow cell, -180 mV
T2 construct: Oligomeric pore purified from E. coli; also called CsgG-WT-F56Q; CsgG-only pore control
T2 sequence: T1 sequence with F56Q

B1: CsgF-K30-CH2-PH-P-SO2F-del(S31-F119) (peptide)
peptide: GTMTFQFRNPNFGGNPNNGAFLLNSAQAQK(4‑(fluorosulfonyl)phenylacetyl)-NH2
modifications: N-terminus assumed
SMILES: CSCC[C@H](NC(=O)[C@@H](NC(=O)CN)[C@@H](C)O)C(=O)N[C@H](C(=O)N[C@@H](Cc1ccccc1)C(=O)N[C@@H](CCC(N)=O)C(=O)N[C@@H](Cc1ccccc1)C(=O)N[C@@H](CCCNC(=N)N)C(=O)N[C@@H](CC(N)=O)C(=O)N1CCC[C@H]1C(=O)N[C@@H](CC(N)=O)C(=O)N[C@@H](Cc1ccccc1)C(=O)NCC(=O)NCC(=O)N[C@@H](CC(N)=O)C(=O)N1CCC[C@H]1C(=O)N[C@@H](CC(N)=O)C(=O)N[C@@H](CC(N)=O)C(=O)NCC(=O)N[C@@H](C)C(=O)N[C@@H](Cc1ccccc1)C(=O)N[C@@H](CC(C)C)C(=O)N[C@@H](CC(C)C)C(=O)N[C@@H](CC(N)=O)C(=O)N[C@@H](CO)C(=O)N[C@@H](C)C(=O)N[C@@H](CCC(N)=O)C(=O)N[C@@H](C)C(=O)N[C@@H](CCC(N)=O)C(=O)N[C@@H](CCCCNC(=O)Cc1ccc(S(=O)(=O)F)cc1)C(N)=O)[C@@H](C)O
notes: Synthetic peptide: WT CsgF(1-29) with a modified Lys at position 30; also called 4-CH2SO2F-CsgF; CsgF-WT-K30-CH2PH-p-SO2F-del(S31-F119)
[1]
  first order rate constant k1 of covalent reaction: ~0.17 h⁻¹
  halftime (t1/2) of covalent complex formation: 4 h
[2]
  fold increase in the proportion of bilayer embedded stable complexes over the non-covalent complex: 2 fold

B2: CsgF-K30-PARA-SO2F-del(S31-F119) (peptide)
peptide: GTMTFQFRNPNFGGNPNNGAFLLNSAQAQK(Benzoyl(4-SO2F))-NH2
modifications: N-terminus assumed
SMILES: CSCC[C@H](NC(=O)[C@@H](NC(=O)CN)[C@@H](C)O)C(=O)N[C@H](C(=O)N[C@@H](Cc1ccccc1)C(=O)N[C@@H](CCC(N)=O)C(=O)N[C@@H](Cc1ccccc1)C(=O)N[C@@H](CCCNC(=N)N)C(=O)N[C@@H](CC(N)=O)C(=O)N1CCC[C@H]1C(=O)N[C@@H](CC(N)=O)C(=O)N[C@@H](Cc1ccccc1)C(=O)NCC(=O)NCC(=O)N[C@@H](CC(N)=O)C(=O)N1CCC[C@H]1C(=O)N[C@@H](CC(N)=O)C(=O)N[C@@H](CC(N)=O)C(=O)NCC(=O)N[C@@H](C)C(=O)N[C@@H](Cc1ccccc1)C(=O)N[C@@H](CC(C)C)C(=O)N[C@@H](CC(C)C)C(=O)N[C@@H](CC(N)=O)C(=O)N[C@@H](CO)C(=O)N[C@@H](C)C(=O)N[C@@H](CCC(N)=O)C(=O)N[C@@H](C)C(=O)N[C@@H](CCC(N)=O)C(=O)N[C@@H](CCCCNC(=O)c1ccc(S(=O)(=O)F)cc1)C(N)=O)[C@@H](C)O
notes: Synthetic peptide: WT CsgF(1-29) with a modified Lys at position 30; also called 4-SO2F-CsgF; CsgF-WT-K30-PARA-SO2F-del(S31-F119)
[1]
  first order rate constant k1 of covalent reaction: ~0.46 h⁻¹
  halftime (t1/2) of covalent complex formation: 1.5 h
[2]
  fold increase in the proportion of bilayer embedded stable complexes over the non-covalent complex: 2 fold

B3: CsgF-K30-META-SO2F-del(S31-F119) (peptide)
peptide: GTMTFQFRNPNFGGNPNNGAFLLNSAQAQK(Benzoyl(3-SO2F))-NH2
modifications: N-terminus assumed
SMILES: CSCC[C@H](NC(=O)[C@@H](NC(=O)CN)[C@@H](C)O)C(=O)N[C@H](C(=O)N[C@@H](Cc1ccccc1)C(=O)N[C@@H](CCC(N)=O)C(=O)N[C@@H](Cc1ccccc1)C(=O)N[C@@H](CCCNC(=N)N)C(=O)N[C@@H](CC(N)=O)C(=O)N1CCC[C@H]1C(=O)N[C@@H](CC(N)=O)C(=O)N[C@@H](Cc1ccccc1)C(=O)NCC(=O)NCC(=O)N[C@@H](CC(N)=O)C(=O)N1CCC[C@H]1C(=O)N[C@@H](CC(N)=O)C(=O)N[C@@H](CC(N)=O)C(=O)NCC(=O)N[C@@H](C)C(=O)N[C@@H](Cc1ccccc1)C(=O)N[C@@H](CC(C)C)C(=O)N[C@@H](CC(C)C)C(=O)N[C@@H](CC(N)=O)C(=O)N[C@@H](CO)C(=O)N[C@@H](C)C(=O)N[C@@H](CCC(N)=O)C(=O)N[C@@H](C)C(=O)N[C@@H](CCC(N)=O)C(=O)N[C@@H](CCCCNC(=O)c1cccc(S(=O)(=O)F)c1)C(N)=O)[C@@H](C)O
notes: Synthetic peptide: WT CsgF(1-29) with a modified Lys at position 30; also called 3-SO2F-CsgF; CsgF-WT-K30-META-SO2F-del(S31-F119)
[1]
  first order rate constant k1 of covalent reaction: ~1 h⁻¹
  halftime (t1/2) of covalent complex formation: 0.66 h
[2]
  fold increase in the proportion of bilayer embedded stable complexes over the non-covalent complex: 2 fold

B4: CsgF-del(S31-F119) (peptide)
peptide: GTMTFQFRNPNFGGNPNNGAFLLNSAQAQN
notes: Chemically synthesised peptide; In complex ONLP20783 with CsgG-F56Q; also called CsgF-WT-del(S31-F119); del(S31-F119) CsgF peptide
[3]
  binding result: binds
